To fix the notation:
B1: human SALM5 LRR–Ig-His6 (residues 18–378) [human] / itself (parent)
chain: QICPKRCVCQILSPNLATLCAKKGLLFVPPNIDRRTVELRLADNFVTNIKRKDFANMTSLVDLTLSRNTISFITPHAFADLRNLRALHLNSNRLTKITNDMFSGLSNLHHLILNNNQLTLISSTAFDDVFALEELDLSYNNLETIPWDAVEKMVSLHTLSLDHNMIDNIPKGTFSHLHKMTRLDVTSNKLQKLPPDPLFQRAQVLATSGIISPSTFALSFGGNPLHCNCELLWLRRLSREDDLETCASPPLLTGRYFWSIPEEEFLCEPPLITRHTHEMRVLEGQRATLRCKARGDPEPAIHWISPEGKLISNATRSLVYDNGTLDILITTVKDTGAFTCIASNPAGEATQIVDLHIIKLP

In the test the parent is B1. As to the kind of experiment: SEC-MALS. The note with it: with itself; read off a plot. Background: SEC sorts molecules by how far they enter the pores of the column.
Take chain 1 N141A: the screen value turned out to be 56 kDa.

These data come from paper PMC5773591, “Structural basis of trans-synaptic interactions between PTPδ and SALMs for inducing synapse formation” (Nature Communications, 2018).
